Assay results: publication PMC10141540

T1: HU-B (Escherichia coli, UniProt P0ACF4 1-90)
T1 sequence: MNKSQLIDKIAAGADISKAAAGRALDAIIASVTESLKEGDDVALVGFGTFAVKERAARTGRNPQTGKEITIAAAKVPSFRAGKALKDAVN

B1: 20 bp dsDNA (dsDNA)
DNA 1: GTTCAATTGTTGTTAACTTG
DNA 2: CAAGTTAACAACAATTGAAC
B2: 4WJ DNA (structured_DNA)
DNA 1: CCCTATAACCCCTGCATTGAATTCCAGTCTGATAA
DNA 2: GTAGTCGTGATAGGTGCAGGGGTTATAGGG
DNA 3: AACAGTAGCTCTTATTCGAGCTCGCGCCCTATCACGACTA
DNA 4: TTTATCAGACTGGAATTCAAGCGCGAGCTCGAATAAGAGCTACTGT

Columns and labels:
[1] = biological target: T1, HU-B; experiment: condensate co-localization
[2] = biological target: T1, HU-B; experiment: EMSA
[3] = biological target: HU-A (Escherichia coli, UniProt P0ACF0 1-90); experiment: EMSA
Sequence of HU-A (P0ACF0 whole entry): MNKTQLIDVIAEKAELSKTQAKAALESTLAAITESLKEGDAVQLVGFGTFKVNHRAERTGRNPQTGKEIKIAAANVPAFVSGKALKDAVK

Binder | binding result [1] | binding result [2] | binding result [3]
B1 | binds | – | –
B2 | – | binds | binds
